Measurements reported in the Human Domainome abundance scans (Beltran et al. 2025).
± gives the uncertainty stated by the source.

Experiment: abundance fitness (aPCA) (normalised: wild type 0, dead -1); higher = more abundant; growth selection in yeast, the domain comes from the species named
Conditions: Homo sapiens

Substance | abundance fitness
DnaJ homolog subfamily B member 1 Q7Y, P25685 | 0.022 ± 0.13
DnaJ homolog subfamily B member 1 Q27A, P25685 | -0.15 ± 0.11
DnaJ homolog subfamily B member 1 Q27C, P25685 | 0.012 ± 0.14
DnaJ homolog subfamily B member 1 Q27D, P25685 | 0.003 ± 0.15
DnaJ homolog subfamily B member 1 Q27E, P25685 | -0.231 ± 0.36
DnaJ homolog subfamily B member 1 Q27F, P25685 | -0.115 ± 0.13
DnaJ homolog subfamily B member 1 Q27G, P25685 | -0.277 ± 0.093
DnaJ homolog subfamily B member 1 Q27H, P25685 | -0.168 ± 0.18
DnaJ homolog subfamily B member 1 Q27I, P25685 | -0.057 ± 0.12
DnaJ homolog subfamily B member 1 Q27K, P25685 | -0.021 ± 0.17
DnaJ homolog subfamily B member 1 Q27L, P25685 | -0.121 ± 0.094
DnaJ homolog subfamily B member 1 Q27M, P25685 | -0.054 ± 0.14
DnaJ homolog subfamily B member 1 Q27N, P25685 | -0.14 ± 0.12
DnaJ homolog subfamily B member 1 Q27R, P25685 | -0.215 ± 0.066
DnaJ homolog subfamily B member 1 Q27T, P25685 | -0.266 ± 0.12
DnaJ homolog subfamily B member 1 Q27W, P25685 | -0.064 ± 0.098
DnaJ homolog subfamily B member 1 Q27Y, P25685 | -0.056 ± 0.28
DnaJ homolog subfamily B member 1 R13A, P25685 | -0.148 ± 0.081
DnaJ homolog subfamily B member 1 R13C, P25685 | -0.262 ± 0.12
DnaJ homolog subfamily B member 1 R13D, P25685 | -0.117 ± 0.22
DnaJ homolog subfamily B member 1 R13E, P25685 | -0.142 ± 0.089
DnaJ homolog subfamily B member 1 R13F, P25685 | -0.15 ± 0.1
DnaJ homolog subfamily B member 1 R13G, P25685 | -0.305 ± 0.064
DnaJ homolog subfamily B member 1 R13H, P25685 | -0.191 ± 0.16
DnaJ homolog subfamily B member 1 R13I, P25685 | -0.221 ± 0.15

Substance | abundance fitness
DnaJ homolog subfamily B member 1 R13K, P25685 | -0.097 ± 0.089
DnaJ homolog subfamily B member 1 R13L, P25685 | -0.191 ± 0.066
DnaJ homolog subfamily B member 1 R13M, P25685 | -0.219 ± 0.092
DnaJ homolog subfamily B member 1 R13N, P25685 | -0.091 ± 0.11
DnaJ homolog subfamily B member 1 R13P, P25685 | -0.177 ± 0.088
DnaJ homolog subfamily B member 1 R13Q, P25685 | 0.048 ± 0.2
DnaJ homolog subfamily B member 1 R13S, P25685 | -0.182 ± 0.056
DnaJ homolog subfamily B member 1 R13T, P25685 | -0.138 ± 0.089
DnaJ homolog subfamily B member 1 R13V, P25685 | -0.157 ± 0.065
DnaJ homolog subfamily B member 1 R13W, P25685 | -0.434 ± 0.08
DnaJ homolog subfamily B member 1 R13Y, P25685 | -0.279 ± 0.091
DnaJ homolog subfamily B member 1 R25A, P25685 | 0.011 ± 0.079
DnaJ homolog subfamily B member 1 R25C, P25685 | -0.22 ± 0.14
DnaJ homolog subfamily B member 1 R25D, P25685 | -0.15 ± 0.13
DnaJ homolog subfamily B member 1 R25E, P25685 | 0.173 ± 0.082
DnaJ homolog subfamily B member 1 R25F, P25685 | -0.199 ± 0.12
DnaJ homolog subfamily B member 1 R25G, P25685 | -0.007 ± 0.12
DnaJ homolog subfamily B member 1 R25H, P25685 | -0.047 ± 0.11
DnaJ homolog subfamily B member 1 R25I, P25685 | 0.008 ± 0.13
DnaJ homolog subfamily B member 1 R25K, P25685 | -0.022 ± 0.057
DnaJ homolog subfamily B member 1 R25M, P25685 | -0.078 ± 0.12
DnaJ homolog subfamily B member 1 R25N, P25685 | -0.144 ± 0.29
DnaJ homolog subfamily B member 1 R25P, P25685 | -0.462 ± 0.12
DnaJ homolog subfamily B member 1 R25S, P25685 | 0.018 ± 0.076
DnaJ homolog subfamily B member 1 R25T, P25685 | -0.181 ± 0.11

Substance | abundance fitness
DnaJ homolog subfamily B member 1 R25V, P25685 | 0.003 ± 0.062
DnaJ homolog subfamily B member 1 R25W, P25685 | -0.116 ± 0.092
DnaJ homolog subfamily B member 1 R26A, P25685 | 0.056 ± 0.18
DnaJ homolog subfamily B member 1 R26C, P25685 | 0.064 ± 0.11
DnaJ homolog subfamily B member 1 R26D, P25685 | 0.327 ± 0.25
DnaJ homolog subfamily B member 1 R26F, P25685 | -0.032 ± 0.094
DnaJ homolog subfamily B member 1 R26G, P25685 | -0.117 ± 0.094
DnaJ homolog subfamily B member 1 R26H, P25685 | 0.163 ± 0.11
DnaJ homolog subfamily B member 1 R26I, P25685 | 0.071 ± 0.16
DnaJ homolog subfamily B member 1 R26K, P25685 | 0.052 ± 0.18
DnaJ homolog subfamily B member 1 R26L, P25685 | 0.068 ± 0.075
DnaJ homolog subfamily B member 1 R26M, P25685 | -0.121 ± 0.13
DnaJ homolog subfamily B member 1 R26N, P25685 | 0.102 ± 0.17
DnaJ homolog subfamily B member 1 R26P, P25685 | -0.628 ± 0.1
DnaJ homolog subfamily B member 1 R26Q, P25685 | -0.019 ± 0.22
DnaJ homolog subfamily B member 1 R26S, P25685 | 0.064 ± 0.068
DnaJ homolog subfamily B member 1 R26T, P25685 | -0.128 ± 0.12
DnaJ homolog subfamily B member 1 R26V, P25685 | 0.03 ± 0.15
DnaJ homolog subfamily B member 1 R26W, P25685 | -0.023 ± 0.081
DnaJ homolog subfamily B member 1 R26Y, P25685 | -0.344 ± 0.19
DnaJ homolog subfamily B member 1 R30A, P25685 | 0.033 ± 0.072
DnaJ homolog subfamily B member 1 R30C, P25685 | 0.042 ± 0.16
DnaJ homolog subfamily B member 1 R30E, P25685 | 0.047 ± 0.24
DnaJ homolog subfamily B member 1 R30F, P25685 | -0.024 ± 0.089
